Results as given in patent US20140087995A1 (published 2014).
Blank lines part the entries; values can stand above or below the binder they belong to. Numbered stars: 1 amine (or outer) side, 2 acyl side, 3 side chain; on linkers, the order of the positions; unused ones are H or OH. Bridge positions count the residues as written; N and C are the ends. Side chains are listed from the residue outwards. Ends that are not written are not given here. * marks the point of attachment. C20 diacid = O=C(O)CCCCCCCCCCCCCCCCCCC(=O)*; γGlu = O=C(O)[C@H](CCC(=O)[*:2])N[*:1]; AEEA = NCCOCCOCC(=O)O

Experiments:
rat calcitonin receptor [1] = biological target: T1, rat calcitonin receptor (rat, UniProt P32214 25-516); assay: ratio of binding IC50s: rat calcitonin receptor over rat amylin receptor (reference)
T1 construct: whole, on cells; also called rCTR; rat calcitonin (a) receptor
T1 sequence (looked up): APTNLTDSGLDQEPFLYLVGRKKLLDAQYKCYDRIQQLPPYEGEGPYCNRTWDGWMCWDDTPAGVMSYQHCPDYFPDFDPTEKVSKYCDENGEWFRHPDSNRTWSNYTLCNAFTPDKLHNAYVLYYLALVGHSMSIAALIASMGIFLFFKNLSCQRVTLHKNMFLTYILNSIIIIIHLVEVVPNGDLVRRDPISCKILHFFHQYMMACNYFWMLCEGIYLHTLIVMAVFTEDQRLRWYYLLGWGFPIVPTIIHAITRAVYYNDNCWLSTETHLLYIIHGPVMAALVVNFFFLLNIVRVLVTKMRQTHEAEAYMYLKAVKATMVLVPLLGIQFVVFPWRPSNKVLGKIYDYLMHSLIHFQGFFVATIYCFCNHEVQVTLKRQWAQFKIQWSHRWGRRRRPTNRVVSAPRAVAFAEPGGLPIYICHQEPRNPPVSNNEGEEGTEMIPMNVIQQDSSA

rat calcitonin receptor [2] = biological target: T1, rat calcitonin receptor; assay: SPA competition with 125I-calcitonin, membranes of BHK cells with rat calcitonin receptor (Assay VIII)
[3] = biological target: T2, human calcitonin receptor (human, UniProt P30988 25-474); assay: ratio of binding IC50s: human calcitonin receptor over human amylin receptor (reference)
T2 construct: whole, on cells; also called hCTR; hCT
T2 sequence (looked up): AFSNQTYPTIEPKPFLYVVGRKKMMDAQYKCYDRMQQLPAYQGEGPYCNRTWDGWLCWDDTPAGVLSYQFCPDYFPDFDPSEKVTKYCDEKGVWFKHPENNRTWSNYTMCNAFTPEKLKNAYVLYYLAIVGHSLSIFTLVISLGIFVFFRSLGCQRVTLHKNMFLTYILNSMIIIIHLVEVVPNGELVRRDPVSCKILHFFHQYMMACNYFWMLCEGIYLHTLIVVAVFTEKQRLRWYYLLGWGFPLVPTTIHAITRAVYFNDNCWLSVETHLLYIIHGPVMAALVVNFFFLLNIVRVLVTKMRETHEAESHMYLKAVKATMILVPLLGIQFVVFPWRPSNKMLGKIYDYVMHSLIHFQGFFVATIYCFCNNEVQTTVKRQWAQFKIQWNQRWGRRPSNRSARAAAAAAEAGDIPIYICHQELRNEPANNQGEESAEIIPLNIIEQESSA
Experimental: The resulting pellet was resuspended, homogenized and centrifuged (20.000 rpm, 15 min) in a buffer containing 20 mM Na-HEPES and 0.1 mM EDTA (pH 7.4, buffer 2). The resulting pellet was resuspended in buffer 2 and protein concentration was measured (BCA protein Assay, Pierce). The homogenate was kept cold during the whole procedure. The membranes were kept at −80° C. until use. The assay was performed in a 384 well Optiplate (PerkinElmer) in a total volume of 40 ul. Membranes were mixed with SPA beads. Final concentration of membranes 35 ng/μL final and SPA beads was 0.05 mg/well. Test-compounds were dissolved in DMSO and further diluted in assay buffer (50 mM Hepes, pH 7.4, 1 mM CaCl2, 5 mM MgCl₂, 0.1% OA and 0.02% Tween20). […] The final mixture was incubated with shaking at 400 rpm for 120 min at 25° C. prior to centrifugation (1500 rpm, 10 min). Samples were analyzed on TopCounter™ (Packard). The IC₅₀ was calculated using (one site binding competition analysis) GraphPad Prism5 as a measure of receptor affinity.
Membranes were prepared in the following way; the cells were rinsed with PBS and incubated with Versene for approximately 5 min before harvesting. The cells were flushed with PBS and the cell-suspension was centrifuged for 5 min at 1000 rpm. Cells were homogenized (Ultrathurrax) in a buffer containing 20 mM Na-HEPES and 10 mM EDTA (pH 7.4) and centrifuged at 20.000 rpm for 15 min. The resulting pellet was resuspended, homogenized and centrifuged (20.000 rpm, 15 min) in a buffer containing 20 mM Na-HEPES and 0.1 mM EDTA (pH 7.4, buffer 2). The resulting pellet was resuspended in buffer 2 and protein concentration was measured (BCA protein Assay, Pierce). The homogenate was kept cold during the whole procedure. The membranes were kept at −80° C. until use. Assay was performed in a 384 well Optiplate (PerkinElmer) in a total volume of 40 ul. Membranes were mixed with SPA beads.

[4] = biological target: T3, rat amylin receptor (rat calcitonin receptor + rat RAMP 3) (rat, UniProt P32214 25-516; Q9JJ73 23-147); assay: SPA competition with 125I-rat amylin, membranes of BHK cells with rat calcitonin receptor + rat RAMP3 (Assay VI)
T3 construct: whole, on cells; also called rAmylin-R; rat amylin 3(a) receptor
T3 sequence (looked up) 1: T1 sequence (looked up)
T3 sequence (looked up) 2: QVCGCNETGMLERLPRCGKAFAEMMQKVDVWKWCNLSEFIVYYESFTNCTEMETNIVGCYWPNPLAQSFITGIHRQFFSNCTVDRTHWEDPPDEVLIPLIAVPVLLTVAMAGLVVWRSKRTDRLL

Ratio rCT/rAmylin binding (rat calcitonin receptor [1]): 131
IC50 (rat calcitonin receptor [2]): 5.26 nM
Ratio hCT/hAmylin binding [3]: 42.6
IC50 [4]: 0.04 nM
B1: N^ε1-[2-[2-[2-[[(4S)-4-carboxy-4-(19-carboxynonadecanoylamino)butanoyl]amino]ethoxy]ethoxy]acetyl]-[Arg17,Pro21,Pro27,Pro29,Pro34]-h-amylin (peptide)
peptide: K([AEEA-γGlu-C20 diacid])CNTATCATQRLANFLRHSSPNFGAIPSPTNVGPNTY-NH2
modifications: disulfide 2-7; N-terminus assumed
SMILES: CC[C@H](C)[C@H](NC(=O)[C@H](C)NC(=O)CNC(=O)[C@H](Cc1ccccc1)NC(=O)[C@H](CC(N)=O)NC(=O)[C@@H]1CCCN1C(=O)[C@H](CO)NC(=O)[C@H](CO)NC(=O)[C@H](Cc1c[nH]cn1)NC(=O)[C@H](CCCNC(=N)N)NC(=O)[C@H](CC(C)C)NC(=O)[C@H](Cc1ccccc1)NC(=O)[C@H](CC(N)=O)NC(=O)[C@H](C)NC(=O)[C@H](CC(C)C)NC(=O)[C@H](CCCNC(=N)N)NC(=O)[C@H](CCC(N)=O)NC(=O)[C@@H](NC(=O)[C@H](C)NC(=O)[C@@H]1CSSC[C@H](NC(=O)[C@@H](N)CCCCNC(=O)COCCOCCNC(=O)CC[C@H](NC(=O)CCCCCCCCCCCCCCCCCCC(=O)O)C(=O)O)C(=O)N[C@@H](CC(N)=O)C(=O)N[C@@H]([C@@H](C)O)C(=O)N[C@@H](C)C(=O)N[C@@H]([C@@H](C)O)C(=O)N1)[C@@H](C)O)C(=O)N1CCC[C@H]1C(=O)N[C@@H](CO)C(=O)N1CCC[C@H]1C(=O)N[C@H](C(=O)N[C@@H](CC(N)=O)C(=O)N[C@H](C(=O)NCC(=O)N1CCC[C@H]1C(=O)N[C@@H](CC(N)=O)C(=O)N[C@H](C(=O)N[C@@H](Cc1ccc(O)cc1)C(N)=O)[C@@H](C)O)C(C)C)[C@@H](C)O
notes: synthetic analogue of human amylin; also called compound 56

Ratio rCT/rAmylin binding (rat calcitonin receptor [1]): 135
IC50 (rat calcitonin receptor [2]): 24.4 nM
Ratio hCT/hAmylin binding [3]: 133
IC50 [4]: 0.181 nM
B2: N^ε1-[2-[2-[2-[[(4S)-4-carboxy-4-(19-carboxynonadecanoylamino)butanoyl]amino]ethoxy]ethoxy]acetyl]-[Arg17,Pro21,Pro27,Pro31,His35]-h-amylin (peptide)
peptide: K([AEEA-γGlu-C20 diacid])CNTATCATQRLANFLRHSSPNFGAIPSSTPVGSHTY-NH2
modifications: disulfide 2-7; N-terminus assumed
SMILES: CC[C@H](C)[C@H](NC(=O)[C@H](C)NC(=O)CNC(=O)[C@H](Cc1ccccc1)NC(=O)[C@H](CC(N)=O)NC(=O)[C@@H]1CCCN1C(=O)[C@H](CO)NC(=O)[C@H](CO)NC(=O)[C@H](Cc1c[nH]cn1)NC(=O)[C@H](CCCNC(=N)N)NC(=O)[C@H](CC(C)C)NC(=O)[C@H](Cc1ccccc1)NC(=O)[C@H](CC(N)=O)NC(=O)[C@H](C)NC(=O)[C@H](CC(C)C)NC(=O)[C@H](CCCNC(=N)N)NC(=O)[C@H](CCC(N)=O)NC(=O)[C@@H](NC(=O)[C@H](C)NC(=O)[C@@H]1CSSC[C@H](NC(=O)[C@@H](N)CCCCNC(=O)COCCOCCNC(=O)CC[C@H](NC(=O)CCCCCCCCCCCCCCCCCCC(=O)O)C(=O)O)C(=O)N[C@@H](CC(N)=O)C(=O)N[C@@H]([C@@H](C)O)C(=O)N[C@@H](C)C(=O)N[C@@H]([C@@H](C)O)C(=O)N1)[C@@H](C)O)C(=O)N1CCC[C@H]1C(=O)N[C@@H](CO)C(=O)N[C@@H](CO)C(=O)N[C@H](C(=O)N1CCC[C@H]1C(=O)N[C@H](C(=O)NCC(=O)N[C@@H](CO)C(=O)N[C@@H](Cc1c[nH]cn1)C(=O)N[C@H](C(=O)N[C@@H](Cc1ccc(O)cc1)C(N)=O)[C@@H](C)O)C(C)C)[C@@H](C)O
notes: synthetic analogue of human amylin; also called compound 57
